# The supplement of paper PMC9170038
# Test system: MS2 coat protein
# Experiment: apparent KD of MS2 coat protein, switch OFF state (with FMN for OFF switches, without FMN for ON switches); designed switch direction (-1 OFF switch, 1 ON switch): -1; higher = weaker reporter binding
# Conditions: FMN input: 0 or 200 uM; Eterna round: R93 (includes R88 designs)
# In short: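 Apparent KD per design is the median of normalised cluster binding-curve fits. Designed RNA switches transcribed on-chip from Illumina sequencing clusters were titrated with SNAP-549-labelled MS2 coat protein in twofold steps from 0.7 or 1.5 nM to 3 µM, with 0.8–1.5 h down to 10–20 min per step. Buffer: 100 mM Tris-HCl pH 7.5, 80 mM KCl, 4 mM MgCl2, without or with constant ligand.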
row,Sequence,apparent KD of MS2 coat protein
1,GGAAAACAUGAGGAUCACCCAUGUAAGGAUAUGCUAGGGAGGGAAAAAAUUUCGCCAGGCAGAAGGUACUAAAG [Janelle Amethyst 18 Mod 6 - Jieux - Exclusion 1],44.7 nM
2,GAUAGGCGAGGAUAUACAUGAGGAUCACCCAUGUAAGUAAGCCUGGCUGAAACUGAAUGUAGAAGGCGCAAAUU [Mat - Exclusion 3 - Neo mod - D70],67.7 nM
3,AAGAAGUGAGGAUAUGUCUGUGCGAAAAAAAAAAAGUGCAGACAGAAGGCACAUGAGGAUCACCCAUGUGGGAA [Florian 65% 6],87.2 nM
4,AAAAAGUGAGGAUAUUCGGAAGGGAAAGCGCAAACCCAACCGAAGAAGGCACAUGAGGAUCACCCAUGUGAAAA [Ecls4-III 65% - Early + late G segment 1],33 nM
5,AAGAAGGCAGGAUAUACAAAAUAAAAGAAAAGAAAGAAAGAACAUGAGGAUCACCCAUGUAGAAGGGCUAAGAA [Merhotepre Ini],39.3 nM
6,AGUGAGUGAGGAUAUGACUGAAGAAUAAAAGAAAUAACAAGUCAGAAGGCACAUGAGGAUCACCCAUGUACACA [May 60],25.6 nM
7,CAGAGACAUGAGGAUCACCCAUGUUAGGAUAUGCGUGAAAGAAAAAAAAAGUUAAAAAGCAGAAGGAACAGAGG [JR_Exc001_Sub310],33.6 nM
8,UUAGAACAUGAGGAUCACCCAUGUGAGGAUAUGCAAUACUAGCGACAAGAUCGUUAUAGCAGAAGGCACGUAGU [JR_EXc001_Sub807],64.5 nM
9,AGGGAACAUGAGGAUCACCCAUGUGAGGAUAUACAAAAGAAAAGAAAAGAAAGAAGAAGUAGAAGGUACAAGAA [Neferka],43.9 nM
10,GAAAAGUCAGGAUAUGCGAAGGCGUCUGAUAGACGAGGCUAGCAGAAGGGACAUGAGGAUCACCCAUGUGAAAG [Mat - Exclusion 4 - Eli mod - D87],128 nM
11,AAACGUAGAGGAUAUACAUAAGUAUUACGAAAGUAAUACAAACAUGAGGAUCACCCAUGUAGAAGGCUACGAAA [MOD2 of Meechl's MS2 Ex2 (MS2 riboswitches - Exlclusion 2)],28 nM
12,AGAAAACAUGAGGAUCACCCAUGUCAGGAUAUCCAAAUAAAAAUAAAAUAAAAUAAAAGGAGAAGGGACAAAAG [May 1],66.9 nM
13,CUCAUGUCAGGAUAUCAGUAGUAAAAAAAUAAAAUUACUACUGAGAAGGGACAUGAGGAUCACCCAUGUAAAAA [EX4 363: Super Stable 63],23.2 nM
14,AAAAACCGAGGAUAUACAUGAGGAUCACCCAUGUAAAAAAAAAAAAAGGGAAAAAAAAGUAGAAGGCGGAAAAA [Djehuti Sekhemresementawy],34.8 nM
15,AACUGACAUGAGGAUCACCCAUGUCAGGAUAUGACUUCGAAAAAAAAAAAAAACGAUGUCAGAAGGGACAUGGA [Design 66: Sub-opt N],27.2 nM
16,AAAAAUGGAGGAUAUACAUGAGGAUCACCCAUGUGUGGGCAUACUGUGUCGGCGUCAGGUAGAAGGCCAAAAAA [Gilly Gone Silly 27 - Jieux - Exclusion 3],47.8 nM
17,AGGGAACAUGAGGAUCACCCAUGUGAGGAUAUUCAAAAGAAAAGAAAAGAAAGAAGAAGAAGAAGGUACAAGAA [Neferkare Pepi II],36.9 nM
18,AAAAAUUGAGGAUAUACAUGAGGAUCACCCAUGUUAGAACAAAAAAAAGGGAAAGAAAGUAGAAGGCAAUAAAA [Ex 3 May 26],26.9 nM
19,AACAGUACAGGAUAUACAUGAGGAUCACCCAUGUGAAAAUUAAGUGGCGAACCACAGUGUAGAAGGGUACUGGA [Mat - Exclusion 3 - Eli mod - D51],33.5 nM
20,CAGUACUGAGGAUAUACAUGAGGAUCACCCAUGUGAAAAAGCUACGAAAGUAGCACAUGUAGAAGGCAGUACUG [Ex3: 807],281 nM
21,AAAAAACAUGAGGAUCACCCAUGUAAGGAUAUGUAAAACCCAUAUAAAAAGGGAAAAAACAGAAGGUGCAAAAA [wbt round 1 mod 6],30.4 nM
22,CCCAUGUCAGGAUAUCAGUAGUAAAAAAAAAAAAUUACUACUGAGAAGGGACAUGAGGAUCACCCAUGUCCCUU [EX4 314: Super Stable 14],14.2 nM

row,Sequence,apparent KD of MS2 coat protein
1,AAUAAGUGAGGAUAUACUAAAGAAAUGAAAAGGGAUAAAGAACAUGAGGAUCACCCAUGUAGAAGGCACAAUAA ['Aper-'Anat],37.2 nM
2,AGGAAACAUGAGGAUCACCCAUGUAAGGAUAUCAGAAAGAAAAGAAAAGAAAGAAGAAUGAGAAGGUACAAGAA [Horus Bird],34 nM
3,AGCUAGUCAGGAUAUACGAACAUGUCAAAAGACGAGAAGGGACAUGAGGAUCACCCAUGUAGAAGGGACUAGCA [Diamond 21],198 nM
4,AAGAACUCAGGAUAUACAUGAGGAUCACCCAUGUAAAAGAAAGAAAGGGAAAAGAAAAGUAGAAGGGAGAAGAA [Hedjkheperre-setpenre Nesbanebdjed],34.3 nM
5,AAAAAGGCAGGAUAUGCAUACACACAAAAAAAAAAACUGGGACAUGAGGAUCACCCAUGUAGAAGGGCCAAAAA [Dora Explored 8 - Jieux - Exclusion 2],54 nM
6,AACAAACAUGAGGAUCACCCAUGUGAGGAUAUGAAAAUAAAUAAAAAUAAAAUAAAAAUCAGAAGGCACAACAA [JR_Exc001_Sub003],28.2 nM
7,AAUAAGUGAGGAUAUCGAAGACUGUCGAAAAGACAGUCGAACGAGAAGGCACAUGAGGAUCACCCAUGUGAGGG [Mat - Exaclusion 4 - Eli mod - D69],107 nM
8,AAGGUACGAGGAUAUACAUAGAUACAGACACAUGUACAUGUACAUGAGGAUCACCCAUGUAGAAGGCGUAUAUA [AJ 19],69.7 nM
9,"AAAGGAGCAGGAUAUACAUGAGGAUCACCCAUGUAAAAAACAUAAUAAAAGAACUUAUGUAGAAGGGCUCCAAA [69%, Moding Meechl, 10]",228 nM
10,AGUUGGCGAGGAUAUACAUGAGGAUCACCCAUGUAAGAGUAAAGAGUGAGAAAGAGAAGUAGAAGGCGCUGACA [Ruby 57],247 nM
11,AUAGGCCUAGGAUAUACAUGAGGAUCACCCAUGUUAAUAUUUCAAACAUGAUAAACGUGUAGAAGGAGGAAUAA [JR_Exc003_Sub303],50.8 nM
12,GAAAGUGGAGGAUAUACAUGAGGAUCACCCAUGUGUAAAAAUAAAUACACAAAAGAAAGUAGAAGGCCACAAAG [Mat - Exclusion 3 - Mayanna mod - D118],125 nM
13,AAUAGUGGAGGAUAUACAUGAGGAUCACCCAUGUAGAAAGGAAGUGUAUAUAUGGCGUGUAGAAGGCCAAAUAA [Mai Tai 3 ala Nando],30.3 nM
14,GGUUGGCGAGGAUAUACAUGAGGAUCACCCAUGUGAGAGAAAAAAGUGAUAAAGAAAAGUAGAAGGCGCUGACG [salish99-ex3-32],2470 nM
15,AGAUCAUCAGGAUAUACAUAGGUGAAAAAAGUAAAUCCACUACAUGAGGAUCACCCAUGUAGAAGGGAUGAUCA [Ex2 Design 176: Random 4],30.3 nM
16,AGCUAGUCAGGAUAUACGAACAGGUCAAAAGACGUAAGGGAACAUGAGGAUCACCCAUGUAGAAGGGACUAGCA [Diamond 52],84.3 nM
17,AAUUAGGUAGGAUAUACAUGAGGAUCACCCAUGUAGGAAAAAAGCUACGAAAAAGAAUGUAGAAGGACCUAAAA [Ex 3 Sunny],18.7 nM
18,AAAUGACAUGAGGAUCACCCAUGUCAGGAUAUGACUUGAAAAUAAAAUAAAAAACAUGUCAGAAGGGACAUGAA [Design 49: Sub-opt EB],12.4 nM
19,AAGAACGCAGGAUAUACAAAAUAAAAGAAAAGAAAGAAAGAACAUGAGGAUCACCCAUGUAGAAGGGCGAAGAA [Sewadjkare],49.5 nM
20,AAGAAGUCAGGAUAUACAUGAAAGAAAGAAAAGAAAAGAAAACAUGAGGAUCACCCAUGUAGAAGGGACAAGAA [EteRNA is fun!],50.5 nM
21,AGAAACGUAGGAUAUACAUGAGGAUCACCCAUGUAAAGAAAGAAGGGAGCCACAAGAAGUAGAAGGACGAAGAA [JR_Exc003_Sub004],131 nM
22,GGUUGUCGAGGAUAUACAUGAGGAUCACCCAUGUGAGAGAAAAAAGUGAGAAAGAAAAGUAGAAGGUGGUGACG [salish99-ex3-71],92.9 nM
